Measurements published in paper doi:10.1101/2023.07.07.547762.

molecular target: NES-Venus-miniGs; assay: BRET (NanoLuc-labelled receptor and Venus-labelled mini-Gs recruitment); settings: Emax of the DMCH concentration-response; three independent experiments

Row | percent of parent | Substance
1 | 60% | mTAAR7f with N-terminal twin-strep tag and SNAP-tag and C-terminal nanoluc (wild type) (from UniProt Q5QD08) C131A
2 | 0% | mTAAR7f with N-terminal twin-strep tag and SNAP-tag and C-terminal nanoluc (wild type) (from UniProt Q5QD08) D127A
3 | 0% | mTAAR7f with N-terminal twin-strep tag and SNAP-tag and C-terminal nanoluc (wild type) (from UniProt Q5QD08) V315A
4 | 24% | mTAAR7f with N-terminal twin-strep tag and SNAP-tag and C-terminal nanoluc (wild type) (from UniProt Q5QD08) W286Y
5 | 17% | mTAAR7f with N-terminal twin-strep tag and SNAP-tag and C-terminal nanoluc (wild type) (from UniProt Q5QD08) Y132A
6 | 47% | mTAAR7f with N-terminal twin-strep tag and SNAP-tag and C-terminal nanoluc (wild type) (from UniProt Q5QD08) Y289A

same assay, conditions: pEC50 of the agonist DMCH for mini-Gs recruitment; three independent experiments

Row | other: pEC50 | Substance
7 | 4.9 | mTAAR7f with N-terminal twin-strep tag and SNAP-tag and C-terminal nanoluc (wild type) (from UniProt Q5QD08) C131A
8 | 5.3 | mTAAR7f with N-terminal twin-strep tag and SNAP-tag and C-terminal nanoluc (wild type) (from UniProt Q5QD08) W286Y
9 | 3.6 | mTAAR7f with N-terminal twin-strep tag and SNAP-tag and C-terminal nanoluc (wild type) (from UniProt Q5QD08) Y132A
10 | 4.2 | mTAAR7f with N-terminal twin-strep tag and SNAP-tag and C-terminal nanoluc (wild type) (from UniProt Q5QD08) Y289A
